Measured values from article PMC4672726.

Target: hemagglutinin (HA)–tagged FERONIA (FER-HA) (Arabidopsis thaliana) (UniProt Q9SCZ4)
Assay: co-IP

hemagglutinin (HA)–tagged FERONIA (FER-HA) (Arabidopsis thaliana), sequence (Q9SCZ4 28-895): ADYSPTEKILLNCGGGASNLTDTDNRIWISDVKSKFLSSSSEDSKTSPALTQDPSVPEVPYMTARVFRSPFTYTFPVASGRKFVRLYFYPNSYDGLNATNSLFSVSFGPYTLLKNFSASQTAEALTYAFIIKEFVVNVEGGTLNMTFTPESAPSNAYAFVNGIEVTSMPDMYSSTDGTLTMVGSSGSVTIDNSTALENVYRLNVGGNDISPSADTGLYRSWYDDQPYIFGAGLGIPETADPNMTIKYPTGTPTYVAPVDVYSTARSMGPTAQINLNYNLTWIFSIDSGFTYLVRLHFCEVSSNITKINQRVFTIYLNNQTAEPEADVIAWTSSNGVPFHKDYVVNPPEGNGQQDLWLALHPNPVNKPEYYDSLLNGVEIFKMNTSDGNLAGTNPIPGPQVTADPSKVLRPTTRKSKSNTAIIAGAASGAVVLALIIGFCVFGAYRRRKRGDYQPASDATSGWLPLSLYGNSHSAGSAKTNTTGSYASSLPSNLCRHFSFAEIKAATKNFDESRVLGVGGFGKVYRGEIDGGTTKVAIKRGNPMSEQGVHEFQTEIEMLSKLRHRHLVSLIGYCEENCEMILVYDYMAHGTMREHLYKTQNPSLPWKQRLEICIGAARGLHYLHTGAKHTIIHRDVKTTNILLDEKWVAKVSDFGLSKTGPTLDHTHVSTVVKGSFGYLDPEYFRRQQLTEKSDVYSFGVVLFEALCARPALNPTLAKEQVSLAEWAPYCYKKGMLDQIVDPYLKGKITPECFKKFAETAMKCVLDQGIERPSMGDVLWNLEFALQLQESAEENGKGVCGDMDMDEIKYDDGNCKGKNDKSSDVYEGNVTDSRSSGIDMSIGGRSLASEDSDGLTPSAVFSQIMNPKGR

HisRALF (RALF, rapid alkalinization factor, N-terminal 6×His fusion peptide) (from UniProt Q9SRY3 72-120)
fold binding over the inactive analog HisRALF(Δ2–8): 4.5 to 6 fold
